Data as given in article PMC8238508, “Protein-based condensation mechanisms drive the assembly of RNA-rich P granules”.

Tests used:
MEG-3 (wild type) = target: T1, MEG-3 (wild type) (Caenorhabditis elegans, UniProt Q9TXM1 1-862); assay: filter binding; mean and SD computed from four replicate fits: 809.8, 808.8, 661.5, 695.9; Hill model; 50 nM RNA; 3.75 mM HEPES (stock pH 7.4), 150 mM NaCl, 0.9 mM beta-mercaptoethanol, 1.5% glycerol, 10 mM Tris HCl; 30 min, room temperature; nitrocellulose/Hybond-N+ dot blot; conditions: protein: recombinant; tags: N-terminal 6xHis (pET28a); label: 3' fluorescein
T1 sequence: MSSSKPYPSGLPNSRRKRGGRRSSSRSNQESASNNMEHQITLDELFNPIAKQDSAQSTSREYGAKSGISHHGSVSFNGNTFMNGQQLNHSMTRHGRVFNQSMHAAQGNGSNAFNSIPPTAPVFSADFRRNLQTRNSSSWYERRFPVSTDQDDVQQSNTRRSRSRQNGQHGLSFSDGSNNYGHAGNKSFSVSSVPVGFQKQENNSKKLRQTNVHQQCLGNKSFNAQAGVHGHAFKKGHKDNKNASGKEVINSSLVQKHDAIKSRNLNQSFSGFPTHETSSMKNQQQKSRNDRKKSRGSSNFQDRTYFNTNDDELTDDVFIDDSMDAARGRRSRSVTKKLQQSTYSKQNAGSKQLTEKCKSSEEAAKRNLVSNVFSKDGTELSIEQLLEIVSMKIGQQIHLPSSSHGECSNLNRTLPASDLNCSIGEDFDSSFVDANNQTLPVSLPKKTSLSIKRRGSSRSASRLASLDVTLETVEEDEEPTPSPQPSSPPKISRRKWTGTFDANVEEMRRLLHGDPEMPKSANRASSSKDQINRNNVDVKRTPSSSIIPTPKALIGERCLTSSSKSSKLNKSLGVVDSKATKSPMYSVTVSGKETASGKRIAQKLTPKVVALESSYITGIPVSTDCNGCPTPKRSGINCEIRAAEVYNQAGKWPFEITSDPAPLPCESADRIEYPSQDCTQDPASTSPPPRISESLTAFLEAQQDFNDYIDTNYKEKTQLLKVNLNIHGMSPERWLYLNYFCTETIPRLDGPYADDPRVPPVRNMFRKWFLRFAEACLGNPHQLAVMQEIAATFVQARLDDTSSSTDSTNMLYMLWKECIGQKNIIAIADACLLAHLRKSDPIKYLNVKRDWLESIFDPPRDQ

MEG-3 IDR = target: T2, MEG-3 IDR (Caenorhabditis elegans, UniProt Q9TXM1 1-544); assay: filter binding; mean and SD computed from four replicate fits: 109.3, 83.64, 103.3, 107.9; Hill model; curve assigned by legend order; 50 nM RNA; 3.75 mM HEPES (stock pH 7.4), 150 mM NaCl, 0.9 mM beta-mercaptoethanol, 1.5% glycerol, 10 mM Tris HCl; 30 min, room temperature; nitrocellulose/Hybond-N+ dot blot; conditions: protein: recombinant; tags: N-terminal 6xHis (pET28a); label: 3' fluorescein
T2 sequence: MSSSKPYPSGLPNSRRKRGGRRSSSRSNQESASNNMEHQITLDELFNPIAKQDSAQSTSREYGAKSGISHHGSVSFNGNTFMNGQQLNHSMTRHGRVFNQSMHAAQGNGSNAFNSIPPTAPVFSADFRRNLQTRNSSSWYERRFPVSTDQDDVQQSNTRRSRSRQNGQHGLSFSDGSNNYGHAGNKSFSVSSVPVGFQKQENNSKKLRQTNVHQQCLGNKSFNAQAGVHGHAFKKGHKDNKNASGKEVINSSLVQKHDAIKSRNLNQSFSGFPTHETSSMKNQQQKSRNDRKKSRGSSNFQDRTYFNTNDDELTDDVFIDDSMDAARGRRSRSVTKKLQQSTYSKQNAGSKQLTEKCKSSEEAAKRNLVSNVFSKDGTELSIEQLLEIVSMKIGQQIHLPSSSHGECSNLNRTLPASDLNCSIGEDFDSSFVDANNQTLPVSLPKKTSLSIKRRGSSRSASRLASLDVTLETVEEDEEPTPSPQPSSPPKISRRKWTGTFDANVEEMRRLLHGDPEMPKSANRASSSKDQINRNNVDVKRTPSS

## UUUUUUUUUUUUUUUUUUUUUUUUUUUUUU (ssRNA) [poly-U(30) (30U)]
MEG-3 (wild type)
  Kd: 744 ± 77 nM
MEG-3 IDR
  Kd: 101 ± 12 nM
